Assay results reported in patent US10513563.

Biological target: transferrin receptor on H4IIE hepatoma cells (rat) (UniProt Q99376)
Test: cell-based or functional assay

Chain of UniProt Q99376 (Q99376 whole entry): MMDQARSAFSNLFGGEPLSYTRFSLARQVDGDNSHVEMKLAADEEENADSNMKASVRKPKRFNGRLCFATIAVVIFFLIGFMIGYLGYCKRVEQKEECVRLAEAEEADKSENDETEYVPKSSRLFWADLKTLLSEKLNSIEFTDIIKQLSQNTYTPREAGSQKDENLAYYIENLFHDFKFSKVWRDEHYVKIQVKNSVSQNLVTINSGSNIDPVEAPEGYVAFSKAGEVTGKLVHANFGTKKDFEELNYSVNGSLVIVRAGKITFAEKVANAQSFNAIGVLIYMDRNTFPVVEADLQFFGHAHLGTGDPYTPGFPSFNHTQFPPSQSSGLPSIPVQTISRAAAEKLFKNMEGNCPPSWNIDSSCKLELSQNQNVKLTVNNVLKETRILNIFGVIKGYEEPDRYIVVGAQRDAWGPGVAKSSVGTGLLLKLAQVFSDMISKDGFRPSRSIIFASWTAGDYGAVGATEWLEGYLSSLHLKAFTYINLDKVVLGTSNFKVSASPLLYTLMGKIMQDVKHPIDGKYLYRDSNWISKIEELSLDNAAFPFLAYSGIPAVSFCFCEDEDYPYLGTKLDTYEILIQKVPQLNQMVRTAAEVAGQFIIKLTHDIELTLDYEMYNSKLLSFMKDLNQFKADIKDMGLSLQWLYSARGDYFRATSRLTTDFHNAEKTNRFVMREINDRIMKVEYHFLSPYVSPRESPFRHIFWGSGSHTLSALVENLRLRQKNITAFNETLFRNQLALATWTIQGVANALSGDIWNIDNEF

- IC50 of inhibition of glucose production in H4IIE cells (24 hr treatment): 4.6 pM
- activity in inhibition of glucose production in H4IIE cells relative to proinsulin and insulin: 300 fold
Substance: PI-Tf fusion protein (proinsulin-transferrin recombinant fusion protein)
